Reference: paper PMC8012516 (2021)

Assays:
[1] = biological target: S-receptor-binding domain (RBD)-Fc of SARS-CoV-2 (SARS-CoV-2, UniProt P0DTC2); test: SPR
[2] = biological target: angiotensin-converting enzyme 2 (UniProt Q9BYF1 18-805); test: SPR
Sequence of angiotensin-converting enzyme 2 (Q9BYF1 18-740): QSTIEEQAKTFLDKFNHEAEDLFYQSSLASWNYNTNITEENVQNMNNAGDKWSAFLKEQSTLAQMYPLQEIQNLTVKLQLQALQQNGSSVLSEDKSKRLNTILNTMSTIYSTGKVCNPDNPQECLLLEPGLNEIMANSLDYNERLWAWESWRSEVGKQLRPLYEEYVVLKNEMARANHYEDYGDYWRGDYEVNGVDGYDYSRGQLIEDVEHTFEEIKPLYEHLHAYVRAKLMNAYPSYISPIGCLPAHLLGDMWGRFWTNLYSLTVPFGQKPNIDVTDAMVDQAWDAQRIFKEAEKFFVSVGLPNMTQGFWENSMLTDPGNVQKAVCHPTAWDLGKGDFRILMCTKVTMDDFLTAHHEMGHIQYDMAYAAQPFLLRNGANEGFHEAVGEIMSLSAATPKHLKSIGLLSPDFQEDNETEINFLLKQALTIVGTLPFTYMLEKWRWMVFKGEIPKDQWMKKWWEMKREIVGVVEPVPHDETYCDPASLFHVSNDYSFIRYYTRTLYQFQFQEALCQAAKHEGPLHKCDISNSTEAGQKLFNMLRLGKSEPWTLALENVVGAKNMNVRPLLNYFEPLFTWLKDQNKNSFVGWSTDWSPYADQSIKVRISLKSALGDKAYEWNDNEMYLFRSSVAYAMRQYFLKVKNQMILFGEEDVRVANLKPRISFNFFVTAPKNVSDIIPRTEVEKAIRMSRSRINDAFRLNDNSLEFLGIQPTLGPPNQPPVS

B1: antibacterial peptide DP7 (peptide)
peptide: VQWRIRVAVIRK
- koff [1]: 0.00501 s⁻¹
- koff [2]: 0.00918 s⁻¹
